Results taken from patent US20210072252A1 (WASHINGTON UNIVERSITY, published 2021).

Key:
[1] = molecular target: peptide with N-terminal lysine; experiment: biolayer interferometry (Blitz), peptide-coated sensor, NAAB in 1x PBS, 1:1 fit, kd/ka
[2] = molecular target: peptide with N-terminal serine; experiment: as above
[3] = molecular target: peptide with N-terminal arginine; experiment: as above
[4] = molecular target: peptide with N-terminal glutamine; experiment: as above
[5] = molecular target: peptide with N-terminal threonine; experiment: as above
[6] = molecular target: synthetic peptide with N-terminal leucine (Example 1, on nanogel surface); experiment: single-molecule detection, TIRF microscopy; Cy5-labeled NAAB on peptide immobilized on nanogel; counts per field of view
Method: The NAAB for N-terminal leucine amino acids was non-specifically labeled with Cy5 fluorophore on lysine side chains. […] An additional experiment was performed with no peptide added. The labeled NAAB was briefly incubated with the immobilized peptide, and unbound protein was removed by washing. Bound protein, which may be bound specifically to peptides or non-specifically to the surface, was imaged by total internal reflection fluorescence (TIRF) microscopy. Spots exceeding a detection threshold were deemed to indicate bound protein and were converted to a number of counts per field-of-view.

[7] = molecular target: peptide with N-terminal methionine (biolayer interferometry); experiment: biolayer interferometry (Blitz), peptide-coated sensor, NAAB in 1x PBS, 1:1 fit, kd/ka
[8] = molecular target: peptide with N-terminal isoleucine; experiment: as above
[9] = molecular target: peptide with N-terminal valine; experiment: as above
[10] = molecular target: peptide with N-terminal asparagine; experiment: as above
[11] = molecular target: peptide with N-terminal glutamate; experiment: as above

B1: LysNAAB (enzyme)
chain: ANDKSRQTFVVRSKILAAIRQFMVARGFMEVETPMMQVIPGGASARPFITHHNALDLDMYLRIAPELYLKRLVVGGFERVFEINRNFRNEGISVRHNPEFTMMELYMAYADYHDLIELTESLFRTLAQEVLGTTKVTYGEHVFDFGKPFEKLTMREAIKKYRPETDMADLDNFDAAKALAESIGITVEKSWGLGRIVTEIFDEVAEAHLIQPTFITEYPAEVSPLARRNDVNPEITDRFEFFIGGREIGNGFSELNDAEDQAERFQEQVNAKAAGDDEAMFYDEDYVTALEYGLPPTAGLGIGIDRMIMLFTNSHTIRDVILFPAMRP
notes: Purified on GSTrap; also called Lysine
Binder B1 has a Kd [1] of 2610 nM.

B2: SerNAAB (enzyme)
chain: MLDPNLLRNEPDAVAEKLARRGFKLDVDKLGALEERRKVLQVKTENLQAERNSRSKSIGQAKARGEDIEPLRLEVNKLGEELDAAKAELDALQAEIRDIALTIPNLPADEVPVGKDENDNVEVSRWGTPREFDFEVRDHVTLGEMYSGLDFAAAVKLTGSRFVVMKGQIARMHRALSQFMLDLHTEQHGYSENYVPYLVNQDTLYGTGQLPKFAGDLFHTRPLEEEADTSNYALIPTAEVPLTNLVRGEIIDEDDLPIKMTAHTPCFRSEAGSYGRDTRGLIRMHQFDKVEMVQIVRPEDSMAALEEMTGHAEKVLQLLGLPYRKIILCTGDMGFGACKTYDLEVWIPAQNTYREISSCSNVWDFQARRMQARCRSKSDKKTRLVHTLNGSGLAVGRTLVAVMENYQQADGRIEVPEVLRPYMNGLEYI
notes: Purified on GSTrap; also called Serine
Binder B2 has a Kd [2] of 938 nM.

B3: ArgNAAB (enzyme)
chain: EKQTIVVDYSAPNVAKEMHVGHLRSTIIGDAAVRTLEFLGHKVIRANHVGDWGTQFGMLIAWLEKQQQENAGEMELADLEGFYRDAKKHYDEDEEFAERARNYVVKLQSGDEYFREMWRKLVDITMTQNQITYDRLNVTLTRDDVMGESLYNPMLPGIVADLKAKGLAVESEGATVVFLDEFKNKEGEPMGVIIQKKDGGYLYTTTDIACAKYRYESLHADRVLYYIDSRQHQHLMQAWAIVRKAGYVPESVPLEHHMFGMMLGKDGKPFKTRAGGTVKLADLLDETLERARRLVAEKNPDMPADELEKLANAVGIGAVKYADLSKNRTTDYIFDWDNMLAFEGNTAPYMQYAYTRVLSVFRKAEINEEQLAAAPVIIREDREAQLAARLLQFEETLTVVAREGTPHVMCAYLYDLAGLFSGFYEHCPILSAENEEVRNSRLKLAQLTAKTLKLGLDTLGIETVERM
notes: Purified on GSTrap; also called Arginine
Binder B3 has a Kd [3] of 129 nM.

B4: GlnNAAB (enzyme)
chain: TNFIRQIIDEDLASGKHTTVHTRFPPEPNGYLHIGHAKSICLNFGIAQDYKGQCNLRFDDTNPVKEDIEYVESIKNDVEWLGFHWSGNVRYSSDYFDQLHAYAIELINKGLAYVDELTPEQIREYRGTLTQPGKNSPYRDRSVEENLALFEKMRTGGFEEGKACLRAKIDMASPFIVMRDPVLYRIKFAEHHQTGNKWCIYPMYDFTHCISDALEGITHSLCTLEFQDNRRLYDWVLDNITIPVHPRQYEFSR
notes: Purified on GSTrap; also called Glutamine
B4 showed a Kd [4] of 531 nM.

B5: ThreNAAB (enzyme)
chain: RDHRKIGKQLDLYHMQEEAPGMVFWHNDGWTIFRELEVFVRSKLKEYQYQEVKGPFMMDRVLWEKTGHWDNYKDAMFTTSSENREYCIKPMNCPGHVQIFNQGLKSYRDLPLRMAEFGSCHRNEPSGSLHGLGRVRGFTQDDAHIFCTEEQIRDEVNGCIRLVYDMYSTFGFEKIVVKLSTRPEKRIGSDEMWDRAEADLAVALEENNIPFEYQLGEGAFYGPKIEFTLYDCLDRAAQCGTVQLDFSLPSRLSASYVGEDNERKVPVMIHRAILGSMEVFIGILTEEFAGFFPTWLAPVQVVIMNITDSQSEYVNELTQKLSNAGIRVKADLRNEKIGFKIREHTLRRVPYMLVCGDKEVESGKVAVRTRRGKDLGSMDVNEVIEKLQQEIRSRSLKQLEE
notes: Purified on GSTrap; also called Threonine
With B5 the Kd [5] was 1010 nM.

B6: eLAP, engineered leucine-specific aminopeptidase (NAAB for N-terminal leucine) (designed binder)
chain: MAISIKTPEDIEKMRVAGRLAAEVLEMIEPYVKPGVSTGELERICWDYIVNEQHATDSLTGHNGIDGHGSISINEVVCHGVPDDAKLLKDGDIVNIDVTVRKDGFHGDTSKMFIVGKPTIMGERLCRITQESLYLALRMVKPGINLREIGAAIQKFVEAEGFSVVREYCGHGIGRGHHEEPQVLHYDSRETNVVLKPGMTFTIEPMVNAGKKEIRTMKDGSTVKTKDRSLSAQYEHTIVVTDNGCEILTLRKDDTIPAIISHDE
modifications: Cy5 fluorophore non-specifically on lysine side chains
notes: also called NAAB for leucine
B6 was tested, and the “ratio of specific to non-specific binding” value [6] was roughly 2 to 1.

B7: Met NAAB (as used in biolayer interferometry) (designed binder)
chain: AKKILVTCASPYANGSIHLGHMLEHIQADVWVRYQRMRGHEVNFICADDAHGTPIMLKAQQLGITPEQMIGEMSQEHQTDFAGFNISYDNYHSTHSEENRQLSELIYSRLKENGFIKNRTISQLYDPEKGMFLPDRFVKGTCPKCKSPDQYGDNCEVCGATYSPTELIEPKSVVSGATPVMRDSEHFFFDLPSFSEMLQAWTRSGALQEQVANKMQEWFESGLQQWDISRDAPYFGFEIPNAPGKYFYVWLDAPIGLMGSFKNLCDKRGDSVSFDEYWKKDSTAELYHFIGKGIVYFLSLFWPAMLEGSNFRKPSNLFVHGYVTVNGAKMSKSRGTFIKASTWLNHFDADSLRYYYTAKLSSRIDDIDLNLEDFVQRVNADIVNKVVNLASRNAGFINKRFDGVLASELADPQLYKTFTDAAEVIGEAWESREFGKAVREIMALADLANRYVDEQAPWVVAKQEGRDADLQAICSMGINLFRVLMTYLKPVLPKLTERAEAFLNTELTWDGIQQPLLGHKVNPFKALYNRIDMRQVEALVEASK
notes: Same engineered MetRS fragment as m5, here without stated Cy5 label; also called Methionine
B7 showed a Kd [7] of 1070 nM.

B8: IleNAAB (enzyme)
chain: FPMRGDLAKREPGMLARWTDDDLYGIIRAAKKGKKTFILHDGPPYANGSIHIGHSVNKILKDIIIKSKGLSGYDSPYVPGWDCHGLPIELKVEQEYGKPGEKFTAAEFRAKCREYAATQVDGQRKDFIRLGVLGDWSHPYLTMDFKTEANIIRALGKIIGNGHLHKGAKPVHWCVDCRSALAEAEVEYYDKTSPSIVAFQAVDQDALKTKFGVSNVNGPISLVIWTTTPWTLPANRAISIAPDFDYALVQIDGQAVILAKDLVESMQRIGVSDYTILGTVKGAELELLRFTHPFMDFDVPAILGDHVTLDAGTGAVHTAPGHGPDDYVIGQKYGLETANPVGPDGTYLPGTYPTLDGVNVFKANDIVVALLQEKGALLHVEKMQHSYPCCWRHKTPIIFRATPQWFVSMDQKGLRAQSLKEIKGVQWIPDWGQARIESMVANRPDWCISRQRTWGVPMSLFVHKDTEELHPRTLELMEEVAKRVEVDGIQAWWDLDAKEILGDEADQYVKVPDTLDVWFDSGSTHSSVVDVRPEFAGHAADMYLEGSDQHRGWFMSSLMISTAMKGKAPYRQVLTHGFTVDGQGRKMSKSIGNTVSPQDVMNKLGADILRLWVASTDYTGEMAVSDEILKRAADSYRRIRNTARFLLANLNGFDPAKDMVKPEEMVVLDRWAVGCAKAAQEDILKAYEAYDFHEVVQRLMRFCSVEMGSFYLDIIKDRQYTAKADSVARRSCQTALYHIAEALVRWMAPILSFTADEVWGYLPGERE
notes: Purified on GSTrap; also called Isoleucine
For B8, the Kd [8] was 3010 nM.

B9: ValNAAB (enzyme)
chain: MEKTYNPQDIEQPLYEHWEKQGYFKPNGDESQESFCIMIPPPNVTGSLHMGHAFQQTIMDTMIRYQRMQGKNTLWQVGTDHAGIATQMVVERKIAAEEGKTRHDYGREAFIDKIWEWKAESGGTITRQMRRLGNSVDWERERFTMDEGLSNAVKEVFVRLYKEDLIYRGKRLVNWDPKLRTAISDLEVENRESKGSMWHIRYPLADGAKTADGKDYLVVATTRPETLLGDTGVAVNPEDPRYKDLIGKYVILPLVNRRIPIVGDEHADMEKGTGCVKITPAHDFNDYEVGKRHALPMINILTFDGDIRESAQVFDTKGNESDVYSSEIPAEFQKLERFAARKAVVAAIDALGLLEEIKPHDLTVPYGDRGGVVIEPMLTDQWYVRADVLAKPAVEAVENGDIQFVPKQYENMYFSWMRDIQDWCISRQLWWGHRIPAWYDEAGNVYVGRNEEEVRKENNLGADVALRQDEDVLDTWFSSALWTFSTLGWPENTDALRQFHPTSVMVSGFDIIFFWIARMIMMTMHFIKDENGKPQVPFHTVYMTGLIRDDEGQKMSKSKGNVIDPLDMVDGISLPELLEKRTGNMMQPQLADKIRKRTEKQFPNGIEPHGTDALRFTLAALASTGRDINWDMKRLEGYRNFCNKLWNASRFVLMNTEGQDCGFNGGEMTLSLADRWILAEFNQTIKAYREALDSFRFDIAAGILYEFTWNQFCDWYLELTKPVMNGGTEAELRGTRHTLVTVLEGLLRLAHPIIPFITETIWQ
notes: Purified on GSTrap; also called Valine
For B9, the Kd [9] was 1220 nM.

B10: AsnNAAB (enzyme)
chain: SIEYLREVAHLRPRTNLIGAVARVRHTLAQALHRFFNEQGFFWVSTPLITASDTEGAGEMFRVSTLDLENLPRNDQGKVDFDKDFFGKESFLTVSGQLNGETYACALSKIYTFGPTFRAENSNTSRHLAEFWMLEPEVAFANLNDIAGLAEAMLKYVFKAVLEERADDMKFFAERVDKDAVSRLERFIEADFAQVDYTDAVTILENCGRKFENPVYWGVDLSSEHERYLAEEHFKAPVVVKNYPKDIKAFYMRLNEDGKTVAAMDVLAPGIGEIIGGSQREERLDVLDERMLEMGLNKEDYWWYRDLRRYGTVPHSGFGLGFERLIAYVTGVQNVRDVIPFPRTP
notes: Purified on GSTrap; also called Asparagine
Binder B10 has a Kd [10] of 754 nM.

B11: GluNAAB (enzyme)
chain: IKTRFAPSPTGYLHVGGARTALYSWLFARNHGGEFVLRIEDTDLERSTPEAIEAIMDGMNWLSLEWDEGPYYQTKRFDRYNAVIDQMLEEGTAYKCYCSKERLEALREEQMAKGEKPRYDGRCRHSHEHHADDEPCVVRFANPQEGSVVFDDQIRGPIEFSNQELDDLIIRRTDGSPTYNFCVVVDDWDMEITHVIRGEDHINNTPRQINILKALNAPVPVYAHVSMINGDDGKKLSKRHGAVSVMQYRDDGYLPEALLNYLVRLGWSHGDQEIFTREEMIKYFTLNAVSKSASAFNTDKLLWLNHHYI
notes: also called Glutamate
For B11, the Kd [11] was 2120 nM.
